From patent US20240294650A1 (Alector, published 2024)

B1: MTK-227 (antibody, human IgG1, V domains shown)
VH: EVKLVESGGGLVQPGGSLSLSCAASGFTFTDNYMTWVRQPPGKALEWLGFSRNKANGYTTEYSASVKGRFTISRDSSQSILYLQMNALRAEDSGTYYCARFPPHYYAGGYFDVWGTGTTVTVSS
VL: DIQMTQSPASLSASVGETVTITCRASENIYSYLAWYQQKQGKSPQLLVYNAKTLAEGVPSRFSGSGSGTQFSLKINSLQPADFGSYYCQHYYRTPPTFGGGTKLEIK
B2: MTK-201 (antibody, human IgG1, V domains shown)
VH: QVQLRQSGPGLVQPSQSLSITCTVSGFSLSNYGLHWVRQSPGKGLEWLGVIWSGGITDYNAAFISRLSIIKDNSRSQVFFKMNSLQADDTAIYYCARKGHDPYAMDFWGQGTSVTVSS
VL: QIVLTQSPPIMSAFLGERVTMTCTASSSVSSSYLHWYRQMPGSSPKLWIYDTSNLASGVPARFSGSGSGTSYSLTISSMEAEDAATYYCHQYHHSPYTFGGGTKLEIK
B3: MTK-228 (antibody, human IgG1, V domains shown)
VH: QDQLQQSGPELVKPGASVKISCKASGYSFTSYYIHWVKQRPGQGLEWVGWIFPGNGNTKYNERFKGKATLTADTSSSTAYMQLSSLTSEDSAVYYCARLGLIYALDYWGQGTSVTVSS
VL: DAVMTQTPLSLPVSLGDQASISCRSSQSLENSNGNTYLHWYLQKPGQSPQLLIYRVSNRFSGVLDRFSGSGSGTDFTLKISRVEAEDLGVYFCLQVTHVPFTFGSGTKLEIK
B4: MTK-218 (antibody, human IgG1, V domains shown)
VH: QVQLQQSGPELVKPGTSVKISCKASGYSFTSYYIHWVKQRPGQGLDWIGWIFPGNRNTQYNEKFKGKATLTADTSSSTAYMQLSSLTSEDSAVYYCARLGLIYALDYWGQGTSVTVSS
VL: DAVMTQTPLSLPVSLGDQASISCRSSQSLENSNGHTYLHWYLQKPGQSPQLLIYRVSNRFSGVQDRFSGSGSGTDFTLKISRVEAEDLGVYFCLQVTHVPFTFGSGTKLEIK
B5: MTK-226 (antibody, human IgG1, V domains shown)
VH: QVQLQQSGPELVKPGASVKISCKASGYSFTSYYIHWVKQRPGQGLEWIGWIFPGNGNTKYNENFRGKATLTADTSSSTAYMQLSSLTSEDSAVYYCARLGLIYALDYWGQGTSVTVSS
VL: DAVMTQTPLSLPVSLGDQASISCRSSQSLESSNGNTYLHWYLQKPGQSPQLLIYRVSNRFSGVLDRFSGSGSGTDFTLQISRVEAEDLGVYFCLQVTHVPFTFGSGTKLEIK
B6: MTK-223 (antibody, human IgG1, V domains shown)
VH: DVQLQESGPGLVKPSQSLSLTCSVTGYSITSGYYWNWIRQFPGNKLEWMGYISYDGTNNYNPSLKNRISITRDTSENQFFLKLNSVTTEDTATYFCVRGAGYWGQGTTLTVSS
VL: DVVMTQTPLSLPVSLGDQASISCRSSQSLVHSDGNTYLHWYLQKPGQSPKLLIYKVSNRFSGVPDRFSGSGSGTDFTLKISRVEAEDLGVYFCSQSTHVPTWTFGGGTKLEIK
B7: MTK-229 (antibody, human IgG1, V domains shown)
VH: QVQLQQSGPELVKPGASVKISCKASGYEFSRSWMNWVKQRPGKGLEWIGRIYPGDGDTNYKGKLKGQATLTADKSSSTAYMQLSSLTFEDSAVYFCARGGGYYYDSRYEGFVYWGQGTVVTVSA
VL: QIVLTQSPAIMSASPGEEVTMTCSASSSVSYMHWYQQKSGTSPKRWIYDTSKLASGVSGRFSGSGSGTSYSLTISSMEAEDAATYYCQQWSSNPPITFGAGTKLELK
B8: MTK-211 (antibody, human IgG1, V domains shown)
VH: QVQLQQSGAELMKPGASVKLSCKATGYTFTGYWIEWVKQRPGHGLEWIGEILPGSGGSNYNEKFKGKATFTADTSSNTAYIQLSSLTTEDSAIYCCARGEPSYFSDAGFAYWGQGTLVTVSA
VL: QIVLTQSPAVMSASPGEKVTMTCSASSSITYMHWYQQKPGTSPKRWIYDTSKLASGVPARFSGSGSGTSYFLTISSMEAEDVATYYCHQRSTYPYTFGGGTKLEIM

Experiments:
human MerTK = biological target: T1, human MerTK (human, UniProt Q12866 21-999); test: FACS, SK-MEL-5 cells, 10 ug/ml
T1 construct: endogenous receptor on cells; also called human MerTK endogenously expressed on SK-MEL-5 cells; MerTK on human macrophages
T1 sequence: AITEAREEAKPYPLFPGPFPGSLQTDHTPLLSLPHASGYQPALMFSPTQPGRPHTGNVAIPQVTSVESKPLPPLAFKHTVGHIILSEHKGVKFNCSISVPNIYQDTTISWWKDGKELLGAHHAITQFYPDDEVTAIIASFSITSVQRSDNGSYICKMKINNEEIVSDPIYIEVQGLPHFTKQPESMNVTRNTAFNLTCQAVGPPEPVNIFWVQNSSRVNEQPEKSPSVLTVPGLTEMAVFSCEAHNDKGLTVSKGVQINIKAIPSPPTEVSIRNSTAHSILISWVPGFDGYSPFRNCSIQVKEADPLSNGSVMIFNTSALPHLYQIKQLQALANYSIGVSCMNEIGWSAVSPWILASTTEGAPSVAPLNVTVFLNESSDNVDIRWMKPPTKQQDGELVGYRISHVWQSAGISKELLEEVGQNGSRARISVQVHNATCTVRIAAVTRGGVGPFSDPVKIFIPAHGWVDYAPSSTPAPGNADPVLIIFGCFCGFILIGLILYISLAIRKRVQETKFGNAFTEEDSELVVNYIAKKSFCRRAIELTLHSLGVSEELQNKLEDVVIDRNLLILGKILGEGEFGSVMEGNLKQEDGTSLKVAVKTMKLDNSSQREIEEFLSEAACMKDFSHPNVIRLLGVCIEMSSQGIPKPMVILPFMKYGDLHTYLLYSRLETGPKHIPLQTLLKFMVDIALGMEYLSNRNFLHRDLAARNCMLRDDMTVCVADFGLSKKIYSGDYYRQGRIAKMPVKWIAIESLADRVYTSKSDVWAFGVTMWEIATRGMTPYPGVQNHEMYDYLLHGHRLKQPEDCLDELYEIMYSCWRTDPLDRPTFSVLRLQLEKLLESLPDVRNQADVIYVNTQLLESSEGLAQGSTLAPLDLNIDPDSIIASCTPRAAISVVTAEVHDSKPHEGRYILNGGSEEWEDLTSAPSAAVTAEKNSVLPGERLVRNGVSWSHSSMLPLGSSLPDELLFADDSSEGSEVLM
Procedure: To determine whether recombinant anti-human MerTK antibodies of the present disclosure bind to human MerTK endogenously expressed on SK-MEL-5 cells and CHO cells overexpressing mouse MerTK (CHO-muMerTK OE cells), as compared to A375 and parental CHO cells as negative controls, the following experiments were performed. SK-MEL-5 cells, A375 cells, CHO-muMerTK OE cells, and CHO parental cells were plated at 100,000 cells/well. Anti-MerTK antibodies were added to the cells at 10 μg/ml. After 60 minutes on ice, cells were washed and then stained with PE-conjugated goat anti-human IgG antibody (Southern Biotech Cat #2040-09, Birmingham, AL) in the presence of Fc block solution on ice for 30 minutes, and then washed twice with cold FACS buffer (2% FBS in PBS). Mouse anti-human MerTK-PE conjugated (Biolegend, Clone 590H11G1E3) or anti-mouse MerTK-PE conjugated (ThermoFisher, Clone DS5MMER) antibodies were used as positive controls. Stained cells were acquired on a BD FACS Canto II cytometer and the mean fluorescence intensity (MFI) was calculated with FlowJo.

[1] = biological target: T2, Recombinant human MerTK-human Fc Chimera protein (human, UniProt Q12866 26-499, limits assumed); test: blocking ELISA, Gas6-His on MerTK-Fc, Ab 66.6 nM, isotype=100%
T2 construct: bought construct; also called MerTK-Fc (R&D systems, Cat #391-MR-100)
T2 sequence: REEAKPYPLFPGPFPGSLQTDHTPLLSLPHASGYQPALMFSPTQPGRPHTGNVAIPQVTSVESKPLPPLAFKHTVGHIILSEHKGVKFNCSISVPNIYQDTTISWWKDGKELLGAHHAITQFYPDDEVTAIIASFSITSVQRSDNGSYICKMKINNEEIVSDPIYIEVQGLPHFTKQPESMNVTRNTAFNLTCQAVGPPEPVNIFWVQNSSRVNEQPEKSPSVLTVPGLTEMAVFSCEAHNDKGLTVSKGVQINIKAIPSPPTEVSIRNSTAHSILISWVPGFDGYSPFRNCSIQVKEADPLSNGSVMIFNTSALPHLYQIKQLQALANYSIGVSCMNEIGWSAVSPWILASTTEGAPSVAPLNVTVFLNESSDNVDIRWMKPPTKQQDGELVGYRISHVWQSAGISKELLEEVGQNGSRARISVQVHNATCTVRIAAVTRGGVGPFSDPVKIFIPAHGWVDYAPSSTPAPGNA
Procedure: Briefly, rabbit anti-human IgG antibody (Jackson ImmunoResearch, Cat #309-005-008) was coated at 2 μg/ml onto high-protein binding plates at 4° C. overnight. After washing with 0.05% Tween20 in PBS three times, 5% BSA in PBS was added for 1 hour. Recombinant human MerTK-human Fe Chimera protein (R&D systems, Cat #391-MR-100) was added at 2 μg/ml for 1 hour and plates were washed before the addition of 40 μl of anti-MerTK hybridoma supernatants and 40 μl of His tag-conjugated recombinant Gas6 (R&D systems, Cat #885-GSB-050) at 3 μg/ml or His tag-conjugated recombinant ProS (R&D systems, Cat #9489-PS-100) at 20 μg/ml. After a further incubation for 1 hour, plates were washed and incubated for 1 hour with HRP-conjugated anti-6×His tagged antibody (Abcam, Cambridge, MA, Cat #ab1187). Plates were then washed and an HRP substrate, TMB, was added to develop the plates. The reaction was stopped by adding 50 μl 2N H₂SO₄ and the OD was measured using a spectrophotometer (BioTek).
Anti-MerTK antibodies were titrated to a final concentration from 66.6 nM to 4 pM and tested against anti-human MerTK antibody M6 (disclosed in WO2016/106221) or isotype control antibody.

| MFI (human MerTK) | Percent Gas6 ligand binding [1] | Binder |
| --- | --- | --- |
| 40900 MFI | 99.9% | B1 |
| 40300 MFI | 112% | B2 |
| 60200 MFI | 110% | B3 |
| 49000 MFI | 112% | B4 |
| 49100 MFI | 109% | B5 |
| 26800 MFI | 107% | B6 |
| 32200 MFI | 98.9% | B7 |
| 30500 MFI | 115% | B8 |
